Usually Kd stands for the constant that tells how readily two partners part at equilibrium.

The chains are these.
B1: 5583 (antibody, V domains shown)
VH: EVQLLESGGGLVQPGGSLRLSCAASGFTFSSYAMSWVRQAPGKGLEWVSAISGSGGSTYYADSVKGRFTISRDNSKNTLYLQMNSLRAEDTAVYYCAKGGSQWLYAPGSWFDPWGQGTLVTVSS
VL: EIVLTQSPATLSLSPGERATLSCRASQSVSSYLAWYQQKPGQAPRLLIYDASNRATGIPARFSGSGSGTDFTLTISSLEPEDFAVYYCVQRSNFPWTFGGGTKVEIK
notes: anti-BACE1 IgG
B2: 5539 (antibody, V domains shown)
VH: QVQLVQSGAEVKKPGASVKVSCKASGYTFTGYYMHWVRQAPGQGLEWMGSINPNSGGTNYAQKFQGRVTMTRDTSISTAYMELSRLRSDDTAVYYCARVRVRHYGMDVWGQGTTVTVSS
VL: DIQMTQSPSSLSASVGDRVTITCRASQSISSYLNWYQQKPGKAPKLLIYAASSLQSGVPSRFSGSGSGTDFTLTISSLQPEDFATYYCQQPLSHPRTFGGGTKVEIK
notes: anti-BACE1 IgG
B3: 5931 (antibody, V domains shown)
VH: QLQLQESGPGLVKPSETLSLTCTVSGGSISWSSYYWSWIRQPPGKGLEWIGSIYRSGRTYYNPSLKGRVTISVDTSKNQFSLKLSSVTAADTAVYYCARVGHGINYFDLWGRGTLVTVSS
VL: EIVLTQSPATLSLSPGERATLSCRASQSVSSYLAWYQQKPGQAPRLLIYDASKRATGIPARFSGSGSGTDFTLTISSLEPEDFAVYYCQQVYTWPPRTFGGGTKVEIK
notes: anti-BACE1 IgG
B4: 5933 (antibody, V domains shown)
VH: B3 VH with W31R, S32G, S37G, S52M, R55Y, R58S, Y60W, G67S, I104V, N105S
VL: B3 VL with D50G
notes: anti-BACE1 IgG
B5: 5985 (antibody, V domains shown)
VH: B3 VH with W31S, S37G, S52N, R55Y, R58S, G67S, V100L, I104Y
VL: B3 VL with Y36F, K53N, T93V
notes: anti-BACE1 IgG
B6: 5984 (antibody, V domains shown)
VH: B3 VH with W31S, S37G, S52N, R55Y, R58S, V100L, I104Y
VL: B3 VL with Y36F, K53N, T93V
notes: anti-BACE1 IgG
B7: 5982 (antibody, V domains shown)
VH: B3 VH with W31S, S37G, S52N, R55Y, R58S, G67S, V100L, I104Y, N105S
VL: B3 VL with Y36F, K53N, T93V
notes: anti-BACE1 IgG
B8: 5932 (antibody, V domains shown)
VH: B3 VH with W31R, S32G, S37G, S52M, R55Y, R58S, Y60W, G67S, N105S
VL: B3 VL
notes: anti-BACE1 IgG

Numbering of substitutions follows the chain as printed. Bounds are passed on as bounds.

One assay concerns the target BACE1 (HTRF long substrate and FRET short substrate assays of Example 9D). Description: cell-based or functional assay.
In the case of B1, the “EC50, FRET short substrate” value came to 9.72 nM and the “EC50, HTRF long substrate” value stood at 172 nM.
As to B2, the “EC50, HTRF long substrate” value is 0.694 nM.

The target of the next assay is T1, BACE1 in primary mouse cortical neurons (mouse, UniProt P56818 46-501). Description: cell-based or functional assay.
T1 sequence (P56818 46-501): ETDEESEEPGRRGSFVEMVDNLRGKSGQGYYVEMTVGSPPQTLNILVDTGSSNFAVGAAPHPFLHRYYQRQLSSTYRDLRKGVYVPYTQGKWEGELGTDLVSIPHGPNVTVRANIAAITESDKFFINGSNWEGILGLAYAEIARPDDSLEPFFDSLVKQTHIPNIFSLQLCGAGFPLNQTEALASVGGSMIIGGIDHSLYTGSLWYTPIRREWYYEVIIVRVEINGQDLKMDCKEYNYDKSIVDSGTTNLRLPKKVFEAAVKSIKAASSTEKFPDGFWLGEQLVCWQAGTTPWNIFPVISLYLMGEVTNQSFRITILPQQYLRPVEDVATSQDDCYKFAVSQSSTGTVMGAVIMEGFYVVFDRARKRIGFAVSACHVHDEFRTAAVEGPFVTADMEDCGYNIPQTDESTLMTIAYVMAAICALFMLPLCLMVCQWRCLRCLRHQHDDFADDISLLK
Consider B2, for which the “IC50, Abeta x-40 in mouse cortical neurons” value worked out at 17.6 nM and the “maximal % inhibition of Abeta x-40” value worked out at 45%.

Another assay addresses T2, murine BACE1 ECD.
T2 construct: analyte of the Octet assay (200 nM) and enzyme of the first short substrate assay
Description: Octet, pH 7.5.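 Also: antibodies captured on anti-human capture biosensor tips, dissociation followed in PBS with BSA buffer, kinetics fitted with a one-to-one binding model.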
B3 came in with an equilibrium dissociation constant (Kd) of under 0.23 nM.
B4 displayed an equilibrium dissociation constant (Kd) of under 0.24 nM.
On the same count and under the same terms, the figure for B5 is 0.65 nM.
Still for that read-out and setting: to B6 belongs 0.36 nM; to B7, 2 nM.
As to B8, the equilibrium dissociation constant (Kd) is under 0.3 nM.

The next assay addresses T3, human BACE1 ECD.
T3 construct: analyte of the Octet assay (200 nM) and enzyme of the first short substrate assay; also called human BACE1 extracellular domain
In words: Octet, pH 7.5. (In general: BLI is a label-free optical method that tracks binding on a fibre tip over time.)
As for B3, the Kd was under 0.22 nM.
For B4, the Kd worked out at 0.32 nM.
Molecule B5 yielded a Kd of 0.87 nM.
B6 came in with a Kd of 0.43 nM.
Still for that read-out and setting: the figure for B7 is 2.9 nM; for B8 it is 0.31 nM.

A further assay has as its target T1, BACE1 in primary mouse cortical neurons. In words: cell-based or functional assay. This is another data set of the same source.
On to B3, for which the “IC50, Abeta x-40 in mouse cortical neurons” value is 0.91 nM and the “maximal % inhibition of Abeta x-40” value is 69%.
With B4, the “IC50, Abeta x-40 in mouse cortical neurons” value came out at 3.6 nM and the “maximal % inhibition of Abeta x-40” value stood at 67%.
Take B5: the “maximal % inhibition of Abeta x-40” value came out at 73%.
As for B6, the “IC50, Abeta x-40 in mouse cortical neurons” value amounted to 22.6 nM and the “maximal % inhibition of Abeta x-40” value came to 70%.
For B7, in that order: 27.3 nM and 71%.
For B8, in that order: 6.26 nM and 57%.

The target in another assay is T2, murine BACE1 ECD. In words: Octet, pH 5.0.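 Also: antibodies captured on anti-human capture sensor tips, dissociation monitored in PBS with BSA buffer, kinetics fitted with a one-to-one binding model.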
T2 sequence (single chain, as listed by the source limits assumed): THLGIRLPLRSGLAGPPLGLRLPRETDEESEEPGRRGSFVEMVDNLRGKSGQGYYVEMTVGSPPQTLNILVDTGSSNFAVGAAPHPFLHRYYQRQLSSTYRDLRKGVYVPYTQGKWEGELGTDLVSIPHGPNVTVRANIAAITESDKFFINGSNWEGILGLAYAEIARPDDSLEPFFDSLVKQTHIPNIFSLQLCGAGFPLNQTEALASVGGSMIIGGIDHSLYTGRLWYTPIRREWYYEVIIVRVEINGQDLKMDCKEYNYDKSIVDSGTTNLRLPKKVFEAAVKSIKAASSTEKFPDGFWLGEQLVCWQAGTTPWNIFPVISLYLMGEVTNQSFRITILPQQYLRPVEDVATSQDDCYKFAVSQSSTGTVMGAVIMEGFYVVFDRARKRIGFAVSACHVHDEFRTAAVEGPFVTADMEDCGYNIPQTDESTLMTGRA
Consider B3, for which the Kd is under 0.28 nM.
The same measure, in the same setting: to B4 belongs under 0.24 nM.
On the same count and under the same terms, the figure for B5 is 0.81 nM; for B6 it is 0.37 nM; for B7 it is 2.3 nM.
With B8, the equilibrium dissociation constant (Kd) was under 0.3 nM.

The next assay concerns the target T3, human BACE1 ECD. Description: Octet, pH 5.0.
Molecule B3 gave an equilibrium dissociation constant (Kd) of under 0.22 nM.
Still for that read-out and setting: to B4 belongs under 0.2 nM.
B5 returned a Kd of 0.68 nM.
On the same count and under the same terms, the figure for B6 is 0.34 nM.
Still for that read-out and setting: the figure for B7 is 2.3 nM; for B8 it is under 0.23 nM.

Another assay concerns the target T2, murine BACE1 ECD. Description: Octet, pH 7.5.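 Also: antibodies captured on anti-human capture biosensor tips, dissociation followed in PBS with BSA buffer, kinetics fitted with a one-to-one binding model.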 This is another data set of the same source.
On to B1, for which the dissociation constant Kd was 51 nM.
In turn, B2 had a Kd of 110 nM.

In another assay the target is T3, human BACE1 ECD. In words: Octet, pH 7.5.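 Also: antibodies captured on anti-human capture biosensor tips, dissociation followed in PBS with BSA buffer, kinetics fitted with a one-to-one binding model.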 This is another data set of the same source.
T3 sequence (single chain, as listed by the source limits assumed): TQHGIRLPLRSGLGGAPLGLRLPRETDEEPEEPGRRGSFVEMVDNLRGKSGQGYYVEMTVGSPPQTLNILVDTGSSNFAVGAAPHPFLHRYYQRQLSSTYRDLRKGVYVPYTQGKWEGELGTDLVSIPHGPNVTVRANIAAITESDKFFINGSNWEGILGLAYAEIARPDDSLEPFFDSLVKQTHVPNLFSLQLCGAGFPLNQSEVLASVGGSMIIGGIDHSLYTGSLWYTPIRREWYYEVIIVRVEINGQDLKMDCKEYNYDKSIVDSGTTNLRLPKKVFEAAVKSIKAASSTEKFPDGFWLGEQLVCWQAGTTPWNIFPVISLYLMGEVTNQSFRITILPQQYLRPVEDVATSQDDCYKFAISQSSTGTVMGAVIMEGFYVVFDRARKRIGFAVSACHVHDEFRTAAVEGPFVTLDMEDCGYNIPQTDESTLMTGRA
As to B1, the Kd was found to be 78 nM.
In turn, B2 gave a Kd of 79 nM.

In a further assay the target is T2, murine BACE1 ECD. Description: cell-based or functional assay.
Regarding B1, the “% inhibition of BACE1 activity, short FRET substrate” value (“% inhibition of BACE1 activity” below) worked out at 34%.
B2: the “% inhibition of BACE1 activity” value stood at 23%.

In a further assay the target is T3, human BACE1 ECD. In words: cell-based or functional assay.
B1: the “% inhibition of BACE1 activity” value was 44%.
Still for that read-out and setting: to B2 belongs 42%.

The target of a further assay is T4, human BACE1 (R&D Systems) (human, UniProt P56817).
T4 construct: recombinant, commercial (R&D Systems)
T4 sequence (P56817 22-457 limits assumed): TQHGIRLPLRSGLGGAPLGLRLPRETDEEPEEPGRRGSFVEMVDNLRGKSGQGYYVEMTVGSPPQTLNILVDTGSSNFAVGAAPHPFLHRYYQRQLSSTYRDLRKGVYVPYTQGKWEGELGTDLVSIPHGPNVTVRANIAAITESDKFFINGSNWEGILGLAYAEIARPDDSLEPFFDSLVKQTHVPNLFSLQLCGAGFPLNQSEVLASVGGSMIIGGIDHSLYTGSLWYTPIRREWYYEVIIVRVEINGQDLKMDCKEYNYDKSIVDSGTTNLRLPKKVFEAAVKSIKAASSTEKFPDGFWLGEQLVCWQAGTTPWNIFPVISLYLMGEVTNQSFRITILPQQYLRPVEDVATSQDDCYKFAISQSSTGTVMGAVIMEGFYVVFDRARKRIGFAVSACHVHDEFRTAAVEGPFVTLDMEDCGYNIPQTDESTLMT
Description: SPR (Biacore). Background: Surface plasmon resonance follows binding to a sensor surface in real time, without labels.
Turning to B1, the Kd was determined as 81.8 nM.
Turning to B2, binding was characterised by a dissociation constant (Kd) of 30.5 nM.
